Measured values published in US20110118447A1.

Target: binding partner of C5A (XPA23)
Test: Biacore K-off

B1: C5A (XPA23) VL S50H (antibody, V domains shown)
VH: EVQLLESGGGLVQPGGSLRLSCAASGFTFSKYFMFWVRQAPGKGLEWVSVISPSGGMTRYADSVKGRFTISRDNSKNTLYLQMNSLRAEDTAVYYCARVGYGGNSDYWGQGTLVTVSS
VL: DIQMTQSPSSVSASVGDRLTIICRASQDINRWLAWYQQTPGNAPKLLIHHATSLQSGVPSRFSGSGSGTDFTLTINSLQPEDFATYYCQQADSFPLTFGGGTKVEIK
For B1, the fold difference in affinity vs original was 0.05 fold.

B2: C5A (XPA23) VL A51N (antibody, V domains shown)
VH: EVQLLESGGGLVQPGGSLRLSCAASGFTFSKYFMFWVRQAPGKGLEWVSVISPSGGMTRYADSVKGRFTISRDNSKNTLYLQMNSLRAEDTAVYYCARVGYGGNSDYWGQGTLVTVSS
VL: DIQMTQSPSSVSASVGDRLTIICRASQDINRWLAWYQQTPGNAPKLLIHSNTSLQSGVPSRFSGSGSGTDFTLTINSLQPEDFATYYCQQADSFPLTFGGGTKVEIK
Binder B2 has a fold difference in affinity vs original of 0.3 fold.

B3: C5A (XPA23) VL S50T (antibody, V domains shown)
VH: EVQLLESGGGLVQPGGSLRLSCAASGFTFSKYFMFWVRQAPGKGLEWVSVISPSGGMTRYADSVKGRFTISRDNSKNTLYLQMNSLRAEDTAVYYCARVGYGGNSDYWGQGTLVTVSS
VL: DIQMTQSPSSVSASVGDRLTIICRASQDINRWLAWYQQTPGNAPKLLIHTATSLQSGVPSRFSGSGSGTDFTLTINSLQPEDFATYYCQQADSFPLTFGGGTKVEIK
Work on B3 yielded a fold difference in affinity vs original of 0.87 fold.

B4: C5A (XPA23) VL S50N (antibody, V domains shown)
VH: EVQLLESGGGLVQPGGSLRLSCAASGFTFSKYFMFWVRQAPGKGLEWVSVISPSGGMTRYADSVKGRFTISRDNSKNTLYLQMNSLRAEDTAVYYCARVGYGGNSDYWGQGTLVTVSS
VL: DIQMTQSPSSVSASVGDRLTIICRASQDINRWLAWYQQTPGNAPKLLIHNATSLQSGVPSRFSGSGSGTDFTLTINSLQPEDFATYYCQQADSFPLTFGGGTKVEIK
With B4 the fold difference in affinity vs original was 0.25 fold.

B5: C5A (XPA23) VL A51Q (antibody, V domains shown)
VH: EVQLLESGGGLVQPGGSLRLSCAASGFTFSKYFMFWVRQAPGKGLEWVSVISPSGGMTRYADSVKGRFTISRDNSKNTLYLQMNSLRAEDTAVYYCARVGYGGNSDYWGQGTLVTVSS
VL: DIQMTQSPSSVSASVGDRLTIICRASQDINRWLAWYQQTPGNAPKLLIHSQTSLQSGVPSRFSGSGSGTDFTLTINSLQPEDFATYYCQQADSFPLTFGGGTKVEIK
B5 gave a fold difference in affinity vs original of 0.24 fold.

B6: C5A (XPA23) VL S50Q (antibody, V domains shown)
VH: EVQLLESGGGLVQPGGSLRLSCAASGFTFSKYFMFWVRQAPGKGLEWVSVISPSGGMTRYADSVKGRFTISRDNSKNTLYLQMNSLRAEDTAVYYCARVGYGGNSDYWGQGTLVTVSS
VL: DIQMTQSPSSVSASVGDRLTIICRASQDINRWLAWYQQTPGNAPKLLIHQATSLQSGVPSRFSGSGSGTDFTLTINSLQPEDFATYYCQQADSFPLTFGGGTKVEIK
In the case of B6, the fold difference in affinity vs original is reported as 0.21 fold.

B7: C5A (XPA23) VL S50Y (antibody, V domains shown)
VH: EVQLLESGGGLVQPGGSLRLSCAASGFTFSKYFMFWVRQAPGKGLEWVSVISPSGGMTRYADSVKGRFTISRDNSKNTLYLQMNSLRAEDTAVYYCARVGYGGNSDYWGQGTLVTVSS
VL: DIQMTQSPSSVSASVGDRLTIICRASQDINRWLAWYQQTPGNAPKLLIHYATSLQSGVPSRFSGSGSGTDFTLTINSLQPEDFATYYCQQADSFPLTFGGGTKVEIK
Binder B7 has a fold difference in affinity vs original of 0.05 fold.

B8: C5A (XPA23) VL A51S (antibody, V domains shown)
VH: EVQLLESGGGLVQPGGSLRLSCAASGFTFSKYFMFWVRQAPGKGLEWVSVISPSGGMTRYADSVKGRFTISRDNSKNTLYLQMNSLRAEDTAVYYCARVGYGGNSDYWGQGTLVTVSS
VL: DIQMTQSPSSVSASVGDRLTIICRASQDINRWLAWYQQTPGNAPKLLIHSSTSLQSGVPSRFSGSGSGTDFTLTINSLQPEDFATYYCQQADSFPLTFGGGTKVEIK
For B8, the fold difference in affinity vs original was 0.95 fold.

B9: C5A (XPA23) VL T52D (antibody, V domains shown)
VH: EVQLLESGGGLVQPGGSLRLSCAASGFTFSKYFMFWVRQAPGKGLEWVSVISPSGGMTRYADSVKGRFTISRDNSKNTLYLQMNSLRAEDTAVYYCARVGYGGNSDYWGQGTLVTVSS
VL: DIQMTQSPSSVSASVGDRLTIICRASQDINRWLAWYQQTPGNAPKLLIHSADSLQSGVPSRFSGSGSGTDFTLTINSLQPEDFATYYCQQADSFPLTFGGGTKVEIK
B9 showed a fold difference in affinity vs original of 0.72 fold.

B10: C5A (XPA23) VL A51D (antibody, V domains shown)
VH: EVQLLESGGGLVQPGGSLRLSCAASGFTFSKYFMFWVRQAPGKGLEWVSVISPSGGMTRYADSVKGRFTISRDNSKNTLYLQMNSLRAEDTAVYYCARVGYGGNSDYWGQGTLVTVSS
VL: DIQMTQSPSSVSASVGDRLTIICRASQDINRWLAWYQQTPGNAPKLLIHSDTSLQSGVPSRFSGSGSGTDFTLTINSLQPEDFATYYCQQADSFPLTFGGGTKVEIK
B10 showed a fold difference in affinity vs original of 0.13 fold.

B11: C5A (XPA23) VL A51T (antibody, V domains shown)
VH: EVQLLESGGGLVQPGGSLRLSCAASGFTFSKYFMFWVRQAPGKGLEWVSVISPSGGMTRYADSVKGRFTISRDNSKNTLYLQMNSLRAEDTAVYYCARVGYGGNSDYWGQGTLVTVSS
VL: DIQMTQSPSSVSASVGDRLTIICRASQDINRWLAWYQQTPGNAPKLLIHSTTSLQSGVPSRFSGSGSGTDFTLTINSLQPEDFATYYCQQADSFPLTFGGGTKVEIK
B11 showed a fold difference in affinity vs original of 0.76 fold.

B12: C5A (XPA23) VL A51E (antibody, V domains shown)
VH: EVQLLESGGGLVQPGGSLRLSCAASGFTFSKYFMFWVRQAPGKGLEWVSVISPSGGMTRYADSVKGRFTISRDNSKNTLYLQMNSLRAEDTAVYYCARVGYGGNSDYWGQGTLVTVSS
VL: DIQMTQSPSSVSASVGDRLTIICRASQDINRWLAWYQQTPGNAPKLLIHSETSLQSGVPSRFSGSGSGTDFTLTINSLQPEDFATYYCQQADSFPLTFGGGTKVEIK
For B12, the fold difference in affinity vs original was 0.29 fold.

B13: C5A (XPA23) VL A51Y (antibody, V domains shown)
VH: EVQLLESGGGLVQPGGSLRLSCAASGFTFSKYFMFWVRQAPGKGLEWVSVISPSGGMTRYADSVKGRFTISRDNSKNTLYLQMNSLRAEDTAVYYCARVGYGGNSDYWGQGTLVTVSS
VL: DIQMTQSPSSVSASVGDRLTIICRASQDINRWLAWYQQTPGNAPKLLIHSYTSLQSGVPSRFSGSGSGTDFTLTINSLQPEDFATYYCQQADSFPLTFGGGTKVEIK
Work on B13 yielded a fold difference in affinity vs original of 0.45 fold.

B14: C5A (XPA23) VL A51R (antibody, V domains shown)
VH: EVQLLESGGGLVQPGGSLRLSCAASGFTFSKYFMFWVRQAPGKGLEWVSVISPSGGMTRYADSVKGRFTISRDNSKNTLYLQMNSLRAEDTAVYYCARVGYGGNSDYWGQGTLVTVSS
VL: DIQMTQSPSSVSASVGDRLTIICRASQDINRWLAWYQQTPGNAPKLLIHSRTSLQSGVPSRFSGSGSGTDFTLTINSLQPEDFATYYCQQADSFPLTFGGGTKVEIK
With B14 the fold difference in affinity vs original was 0.18 fold.

B15: C5A (XPA23) VL A51H (antibody, V domains shown)
VH: EVQLLESGGGLVQPGGSLRLSCAASGFTFSKYFMFWVRQAPGKGLEWVSVISPSGGMTRYADSVKGRFTISRDNSKNTLYLQMNSLRAEDTAVYYCARVGYGGNSDYWGQGTLVTVSS
VL: DIQMTQSPSSVSASVGDRLTIICRASQDINRWLAWYQQTPGNAPKLLIHSHTSLQSGVPSRFSGSGSGTDFTLTINSLQPEDFATYYCQQADSFPLTFGGGTKVEIK
B15 was tested, and the fold difference in affinity vs original was 0.61 fold.
